Measurements as given in patent US20140120555A1 (PIERRE FABRE MEDICAMENT, published 2014).

How the values were obtained:
[1] = target: T1, Recombinant mouse FcγRI [CD64], Gln25-Pro297 with C-terminal 6-His tag (mouse, UniProt P26151 25-297); test: SPR (Biacore X): m-FcγRI injected over c515H7 Mab immobilized on a CM4 sensorchip; Langmuir model
T1 construct: range 25-297; Soluble form bought from R&D Systems; also called m-FcγRI
T1 sequence: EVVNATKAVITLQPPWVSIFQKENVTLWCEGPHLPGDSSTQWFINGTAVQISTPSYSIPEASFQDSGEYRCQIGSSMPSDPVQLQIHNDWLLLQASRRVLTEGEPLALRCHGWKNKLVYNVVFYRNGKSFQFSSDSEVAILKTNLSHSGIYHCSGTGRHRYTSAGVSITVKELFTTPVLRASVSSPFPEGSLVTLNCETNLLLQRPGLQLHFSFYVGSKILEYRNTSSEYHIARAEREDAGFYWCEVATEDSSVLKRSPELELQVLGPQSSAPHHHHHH
Protocol: (§1) 2017 RU of c515H7 Mab were immobilized using the amine coupling kit chemistry on the second flowcell (FC2) of a CM4 sensorchip. The first flowcell (FC1) activated by NHS and EDC mixture and des-activated by ethanolamine served as the reference surface to check and subtract the non specific interaction between the analyte (Fc gamma receptors) and the sensorchip matrix.
(§2) The kinetic experiments were carried out at 25° Celsius at a flow rate of 30 μl/min. The HBS-EP buffer was used either as the running buffer or for the preparation of analyte solutions. The analyte solutions were injected during 90 seconds (association phase) with a 90 seconds delay (dissociation phase). An injection of running buffer as analyte was used as a double reference. All the sensorgrams were corrected by this double reference sensorgram.
(§3) After each injection of the analyte, the sensorchip was regenerated by injection of 20 mM NaOH, 75 mM NaCl solution.

[2] = target: T2, Recombinant mouse FcγRIII [CD16], Ala31-Thr215 with C-terminal 10-His tag (mouse, UniProt P08508 31-215); test: SPR (Biacore X): m-FcγRIII injected over c515H7 Mab immobilized on a CM4 sensorchip; Langmuir model
T2 construct: Soluble form bought from R&D Systems; also called m-FcγRIII
T2 sequence: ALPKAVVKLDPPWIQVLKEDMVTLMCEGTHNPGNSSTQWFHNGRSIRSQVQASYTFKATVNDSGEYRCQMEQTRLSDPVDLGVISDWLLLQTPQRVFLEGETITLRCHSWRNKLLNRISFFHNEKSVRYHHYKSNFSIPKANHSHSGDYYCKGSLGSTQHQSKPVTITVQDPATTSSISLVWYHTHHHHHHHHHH
Protocol: as §1, §2, §3

[3] = target: T3, Recombinant human FcγRI [CD64], Gln16-Pro288 with C-terminal 6-His tag (human, UniProt P12314 16-288); test: SPR (Biacore X): h-FcγRI injected over c515H7 Mab immobilized on a CM4 sensorchip; heterogeneous ligand model, minor component (0%)
T3 construct: range 16-288; Soluble form bought from R&D Systems; also called h-FcγRI
T3 sequence (P12314 other isoform, or with tags, fused parts or gaps limits assumed): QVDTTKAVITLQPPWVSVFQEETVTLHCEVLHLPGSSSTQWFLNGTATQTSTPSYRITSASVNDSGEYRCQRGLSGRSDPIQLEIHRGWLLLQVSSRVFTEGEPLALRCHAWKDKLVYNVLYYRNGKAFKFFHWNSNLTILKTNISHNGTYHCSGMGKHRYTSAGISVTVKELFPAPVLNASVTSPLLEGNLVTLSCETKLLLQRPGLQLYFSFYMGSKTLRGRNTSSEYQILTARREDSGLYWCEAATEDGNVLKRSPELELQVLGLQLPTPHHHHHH
Protocol: as §1, §2, §3

[4] = target: T3, Recombinant human FcγRI [CD64], …; test: SPR (Biacore X): h-FcγRI injected over c515H7 Mab immobilized on a CM4 sensorchip; heterogeneous ligand model, major component (100%)
Protocol: as §1, §2, §3

[5] = target: T2, Recombinant mouse FcγRIII [CD16], …; test: SPR (Biacore X): m-FcγRIII injected over c515H7 Mab immobilized on a CM4 sensorchip; heterogeneous ligand model, minor component (1%)
Protocol: as §1, §2, §3

[6] = target: T2, Recombinant mouse FcγRIII [CD16], …; test: SPR (Biacore X): m-FcγRIII injected over hz515H7VH1D76NVL2 Mab immobilized on a CM4 sensorchip; Langmuir model
Protocol: as §1, with “1964” for “2017”, “hz515H7VH1D76NVL2” for “c515H7”
as §2
Using the Langmuïr model the constant of dissociation was around 17 and 18 nM.

[7] = target: T3, Recombinant human FcγRI [CD64], …; test: SPR (Biacore X): h-FcγRI injected over hz515H7VH1D76NVL2 Mab immobilized on a CM4 sensorchip; heterogeneous ligand model, major component (99%)
Protocol: The experiments were carried out using a Biacore X device. The soluble forms of the four Fc […]gamma receptors used in this study were purchased from R&D Systems: […]

[8] = target: T4, Recombinant human FcγRIIIA variant V [CD16a], Gln17-Gln208 with C-terminal 6-His tag (human, UniProt P08637 17-208); test: SPR (Biacore X): h-FcγRIIIA injected over hz515H7VH1D76NVL2 Mab immobilized on a CM4 sensorchip; heterogeneous ligand model, major component (79%)
T4 construct: range 17-208; 'variant V' is given without a position, so no substitution is written; also called h-FcγRIIIA
T4 sequence (P08637 other isoform, or with tags, fused parts or gaps mutant limits assumed, form in doubt): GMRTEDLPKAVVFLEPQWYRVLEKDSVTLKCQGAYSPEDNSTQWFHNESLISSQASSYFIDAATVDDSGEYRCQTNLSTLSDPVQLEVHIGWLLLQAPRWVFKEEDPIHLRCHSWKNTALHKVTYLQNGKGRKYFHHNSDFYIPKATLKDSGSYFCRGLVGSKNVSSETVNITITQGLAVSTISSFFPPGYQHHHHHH
Protocol: as §1, with “1964” for “2017”, “hz515H7VH1D76NVL2” for “c515H7”
as §2
Sensorgrams obtained with h-FcγRIIIA [FIG. 16] were clearly not fitted by the Langmuïr model (Chi2/Rmax>20%). […] According to this model, the hz515H7VH1D76NVL2 Mab Fc domain may be regarded as a mixture of two components. […] According to the literature, the heterogeneity observed with h-FcγRIIIA was probably linked to the glycosylation heterogeneity on the Mab Fc domain.

B1: chimeric antibody c515H7 (antibody, human IgG1, kappa)
heavy: not shown
light: DIVMSQSPSSLAVSAGEKVTMSCKSSQSLFNSRTRKNYLAWYQQKPGQSPKLLIYWASARDSGVPARFTGSGSETYFTLTISRVQAEDLAVYYCMQSFNLRTFGGGTKLEIKRTVAAPSVFIFPPSDEQLKSGTASVVCLLNNFYPREAKVQWKVDNALQSGNSQESVTEQDSKDSTYSLSSTLTLSKADYEKHKVYACEVTHQGLSSPVTKSFNRGEC
notes: Human IgG1/kappa constant domains; also called c515H7 Mab; chimeric 515H7
Kd [1]: 106 nM | koff [1]: 0.0661 s⁻¹ | kon [1]: 622000 M⁻¹ s⁻¹ | Kd [2]: 20.9 nM | koff [2]: 0.00442 s⁻¹ | kon [2]: 211000 M⁻¹ s⁻¹ | Kd [3]: 0.06 nM | koff [3]: 7.3e-05 s⁻¹ | kon [3]: 1.14e+06 M⁻¹ s⁻¹ | Kd [4]: 1.22 nM | koff [4]: 0.000599 s⁻¹ | kon [4]: 493000 M⁻¹ s⁻¹ | Kd [5]: 67 nM | koff [5]: 0.0024 s⁻¹ | kon [5]: 40000 M⁻¹ s⁻¹

B2: humanized antibody Hz515H7 VH1 D76N VL2 (antibody, human IgG1, kappa)
heavy: not shown
light: DIVMTQSPSSLAVSLGERATMSCKSSQSLFNSRTRKNYLAWYQQKPGQSPKLLIYWASARDSGVPARFTGSGSETYFTLTISRVQAEDLAVYYCMQSFNLRTFGQGTKVEIKRTVAAPSVFIFPPSDEQLKSGTASVVCLLNNFYPREAKVQWKVDNALQSGNSQESVTEQDSKDSTYSLSSTLTLSKADYEKHKVYACEVTHQGLSSPVTKSFNRGEC
notes: IgG1/kappa; also called hz515H7VL2; hz515H7-1
Kd [6]: 17.4 nM | koff [6]: 0.00364 s⁻¹ | kon [6]: 209000 M⁻¹ s⁻¹ | Kd [7]: 0.69 nM | koff [7]: 0.0004 s⁻¹ | kon [7]: 579000 M⁻¹ s⁻¹ | Kd [8]: 325 nM | koff [8]: 0.187 s⁻¹ | kon [8]: 575000 M⁻¹ s⁻¹
